# B1: wild-type (WT) calsequestrin type 1 (CSQ1), rabbit [rabbit] / skeletal triadin 95 kDa (trisk95) [rabbit (endogenous in skeletal muscle SR vesicles)] (parent)
# chain 1: EEGLDFPEYDGVDRVINVNAKNYKNVFKKYEVLALLYHEPPEDDKASQRQFEMEELILELAAQVLEDKGVGFGLVDSEKDAAVAKKLGLTEEDSIYVFKEDEVIEYDGEFSADTLVEFLLDVLEDPVELIEGERELQAFENIEDEIKLIGYFKNKDSEHYKAFKEAAEEFHPYIPFFATFDSKVAKKLTLKLNEIDFYEAFMEEPVTIPDKPNSEEEIVNFVEEHRRSTLRKLKPESMYETWEDDMDGIHIVAFAEEADPDGYEFLEILKSVAQDNTDNPDLSIIWIDPDDFPLLVPYWEKTFDIDLSAPQIGVVNVTDADSVWMEMDDEEDLPSAEELEDWLEDVLEGEINTEDDDDEDDDDDDDD
# chain 2: MTEITAEGNASTTTTVIDSKNGSVPKSPGKVLKRTVTEDLVTTFSSPAAWLLVIALIITWSAVAVVMFDLVDYKNFSASSIAKMGSDPLKLVHDAVEETTDWIYGFFSLLSDIISSDGDEEDDEGDEDTAKGEIEEPPLKRKDIHKEKIEKQEKPERKIPTKVVHKEKEKEKEKVKEKEKPEKKATHKEKLEKKEKPETKTVTKEEKKARTKEKIEEKTKKEVKGVKQEKVKQTVAKAKEVQKTPKPKEKESKETAAVSKQEQKDQYAFCRYMIDIFVHGDLKPGQSPAIPPPSPTEQASRPTPALPTPEEKEGEKKKAEKKVTTETKKKAEKEDAKKKSEKETDIDMKKKEPGKSPDTKPGTVKVTTQAATKKDEKKEDSKKAKKPAEEQPKGKKQEKKEKHEEPAKSTKKEHAAPSEKQAKAKIERKEEVSAASTKKAVPAKKEEKTTKTVEQETRKEKPGKISSVLKDKELTKEKEVKVPASLKEKGSETKKDEKTSKPEPQIKKEEKPGKEVKPKPPQPQIKKEEKPEQDIMKPEKTALHGKPEEKVLKQVKAVTTEKHVKPKPAKKAEHQEKEPPSIKTDKPKSTSKGMPEVTESGKKKIEKSEKEIKVPARRESHQLQNVTKAEKPARGSKEGFEDVPASKKAKEEAEEVSSTKKQKSPISFFQCVYLDGYNGYGFQFPVTPAQYPGESSGKPNSPGPKQ
# Variants of: B1
# Assay: co-immunoprecipitation (CSQ1 IP, Western blot densitometry)
# Conditions: with skeletal triadin 95 kDa (trisk95) [rabbit (endogenous in skeletal muscle SR vesicles)]; 1 mM Ca2+; parent: 100; read off a plot
row,Variant,percent of parent (% relative binding)
1,chain 1 EEGLDFPEYDGVDRVINVNAKNYKNVFKKYEVLALLYHEPPEDDKASQRQFEMEELILELAAQVLEDKGVGFGLVDSEKDAAVAKKLGLTEEDSIYVFKEDEVIEYDGEFSADTLVEFLLDVLEDPVELIEGERELQAFENIEDEIKLIGYFKNKDSEHYKAFKEAAEEFHPYIPFFATFDSKVAKKLTLKLNEIDFYEAFMEEPVTIPDKPNSEEEIVNFVEEHRRSTLRKLKPESMYETWEDDMDGIHIVAFAEEADPDGYEFLEILKSVAQDNTDNPDLSIIWIDPDDFPLLVPYWEKTFDIDLSAPQIGVVNVTDADSVWMEMDDEEDLPSAEELEDWLEDVLEGEINTEDDDDEDDDDDDDA [chain 1 D367A],86
2,chain 1 EEGLDFPEYDGVDRVINVNAKNYKNVFKKYEVLALLYHEPPEDDKASQRQFEMEELILELAAQVLEDKGVGFGLVDSEKDAAVAKKLGLTEEDSIYVFKEDEVIEYDGEFSADTLVEFLLDVLEDPVELIEGERELQAFENIEDEIKLIGYFKNKDSEHYKAFKEAAEEFHPYIPFFATFDSKVAKKLTLKLNEIDFYEAFMEEPVTIPDKPNSEEEIVNFVEEHRRSTLRKLKPESMYETWEDDMDGIHIVAFAEEADPDGYEFLEILKSVAQDNTDNPDLSIIWIDPDDFPLLVPYWEKTFDIDLSAPQIGVVNVTDADSVWMEMDDEEDLPSAEELEDWLEDVLEGEINTEDDDDEDDDDDADA [chain 1 D365A D367A],110
3,chain 1 EEGLDFPEYDGVDRVINVNAKNYKNVFKKYEVLALLYHEPPEDDKASQRQFEMEELILELAAQVLEDKGVGFGLVDSEKDAAVAKKLGLTEEDSIYVFKEDEVIEYDGEFSADTLVEFLLDVLEDPVELIEGERELQAFENIEDEIKLIGYFKNKDSEHYKAFKEAAEEFHPYIPFFATFDSKVAKKLTLKLNEIDFYEAFMEEPVTIPDKPNSEEEIVNFVEEHRRSTLRKLKPESMYETWEDDMDGIHIVAFAEEADPDGYEFLEILKSVAQDNTDNPDLSIIWIDPDDFPLLVPYWEKTFDIDLSAPQIGVVNVTDADSVWMEMDDEEDLPSAEELEDWLEDVLEGEINTEDDDDEDDDADADA [chain 1 D363A D365A D367A],84

# Source: article PMC4389316, “C-terminal residues of skeletal muscle calsequestrin are essential for calcium binding and for skeletal ryanodine receptor inhibition” (Skeletal Muscle, 2015)
